# Data: article PMC8367818, “The Taxus genome provides insights into paclitaxel biosynthesis” (Nature Plants, 2021)
# Substrate: CC(C)=CCC/C(C)=C/CC/C(C)=C/CC/C(C)=C/COP(=O)(O)OP(=O)(O)O
# Test: purified protein
# Format: biochemical, Taxus chinensis
# Settings: 1 mM MgCl2, 25 mM HEPES pH 8.5, 10% glycerol, 5 mM DTT, 32 °C, 30 min, GGPP spiked with [1-3H]-GGPP
Protein,Km,kcat
"TS1 (Taxus chinensis) (protein, 60-residue N-terminal (plastid transit) truncation, His-tagged, pET28b, E. coli, purified) MSSSTGTSKVVSETSSTIVDDIPRLSANYHGDLWHHNVIQTLETPFRESSTYQERADELVVKIKDMFNALGDGDISPSAYDTAWVARVATISSDGSEKPRFPQALNWVLNNQLQDGSWGIESHFSLCDRLLNTINSVIALSVWKTGHSQVEQGTEFIAENLRLLNEEDELSPDFEIIFPALLQKAKSLGINLPYDLPFIKYLSTTREARLTDVSAAADNIPANMLNALEGLEEVIDWKKIMRFQSKDGSFLSSPASTACVLMNTGDEKCFTFLNNLLDKFGGCVPCMYSIDLLERLSLVDNIEHLGIGRHFKQEIKVALDYVYRHWSERGIGWGRDSLVPDLNTTALGLRTLRTHGYDVSSDVLNNFKDENGRFFSSAGQTHVELRSVVNLFRASDLAFPDEGAMDDARKFAEPYLRDALATKISTNTKLFKEIEYVVEYPWHMSIPRLEARSYIDSYDDDYVWERKTLYRMPSLSNSKCLELAKLDFNIVQSLHQEELKLLTRWWKESGMADINFTRHRVAEVYFSSATFEPEYSATRIAFTKIGCLQVLFDDMADIFATLDELKSFTEGVKRWDTSLLHEIPECMQTCFKVWFKLMEEVNNDVVKVQGRDMLAHIRKPWELYFNCYVQEREWLDAGYIPTFEEYLKTYAISVGLGPCTLQPILLMGELVKDDVVEKVHYPSNMFELVSLSWRLTNDTKTYQAEKARGQQASGIACYMKDNPGATEEDAIKHICRVVDRALKEASFEYFKPSNDIPMGCKSFIFNLRLCVQIFYKFIDGYGIANEEIKDYIRKVYIDPIQV",5.5 ± 1.6 µM,1705 s⁻¹
"TS2 (Taxus chinensis) (protein, 60-residue N-terminal (plastid transit) truncation, His-tagged, pET28b, E. coli, purified) SGSPTKLATENANAVAESNLIPRLSANYHGDLWHHGVIQTLQTPYQESSSYQERAEELIVKIKDMFKAVEEGAISPSAYDTAWVARVPDGSEKPRFPQALNWLLHNQLQDGSWGLESHFMLSDRLLSTLNSVISLLVWKTGQQQVEQGTLFITENLKLLEGEDELPPDFEIIFPALLQKAKALGMSLPDHDLPFIKSLSVAREARLASYTDNNIPASMLNALEGLEEVIDWDKIMRFQMPCLYSIDLLERLSLVDNIEHLGIGRHFKQEIKVALDYVYRYWSERGIGLGRDSLIPDLNTTALGLRTLRAHGYNVSSEVLNNFKDENGRFFSSLGQTHVELRSMVNLLRASDLAFPDEPLMDDAKIFAEAYLRDALATRISTNTKLFKEIDYAVEYPWHMSIPRLEARSYIDVYDDDYTWQNKTLYRMSNLSNAYCLELAKLDFNIVQSLHQEELKLLTRWWKESGMADINFTRHRVAEVYFSSATFEPEYSSTRIAFTKIGCLQVLFDDMADIFATLDELRDFTEGVKRWDTSLIHKLPDCMQTCFRVWFNLMEEVNNDVSNVQGRDMLNHIRKPWELYFNCYVQEREWLDAGYIPTLEEYLKTYSISVGLGPCTLQPILLMGDIVKDDVVEKVHYPSNLFELVSLSWRLTNDTKTYQAEKARGQQASGIACYMKDNPGSTEEDAIKYICGVVDRALKEACFEYFKPADDVPMSCKSFIFNLRLCVQIFYKFIDGYGIANEEIKDYIRKVYIEPIQV",8.6 ± 1.5 µM,3280 s⁻¹
